Laboratory results taken from publication PMC3223566, “The Initiation Factor TFE and the Elongation Factor Spt4/5 Compete for the RNAP Clamp during Transcription Initiation and Elongation” (Molecular Cell, 2011).

Tests used:
[1] = target: T1, M. jannaschii RNA polymerase, wild type, reconstituted from 12 recombinant subunits (M. jannaschii, UniProt Q58443 1-78; Q57840 1-187); assay: fluorescence polarisation; fluorescence anisotropy; RNAP added to labeled TFE^44*Cy3B (50 nM); apparent dissociation constant by direct fitting of the titration curves; settings: both partners purified
T1 construct: RNA polymerase subunit Rpo1′, M. jannaschii; holds the clamp coiled-coil motif; RNA polymerase subunit Rpo2″, M. jannaschii; RNA polymerase subunit Rpo4 (stalk), M. jannaschii; RNA polymerase subunit Rpo5, M. jannaschii; RNA polymerase subunit Rpo7 (stalk), M. jannaschii; In PIC and TEC experiments the same RNAP stood with DNA, TBP and TFB, or with a DNA/RNA scaffold (see the assay's format); …

[2] = target: T2, RNAPΔRpo4/7, ten-subunit RNAP subassembly lacking Rpo4/7 (M. jannaschii, UniProt Q58443 1-78); assay: as above; settings: both partners purified
T2 construct: RNA polymerase subunit Rpo1′, M. jannaschii; holds the clamp coiled-coil motif; RNA polymerase subunit Rpo2″, M. jannaschii; RNA polymerase subunit Rpo5, M. jannaschii; As m6 without the chains Rpo4 and Rpo7; source: recombinant subunits, reconstituted in vitro without Rpo4/7; copies: + + + + + + + + +

B1: TFE labeled with Cy3B at residue 44 (WH domain) (natural protein)
chain: MLNDPLVQEVLFNIFEGDEKGFEVIDVLLEKGETTEEEIAKELFVKLNVVRKLLYKLYDARLVDYKRWKDEDTNWYSYTWLPTLEKLPYVVKKKINELIKDLEKKLEFEKNNMFFFCPNCNVRFTFEEAMDYGFSCPGCGNMLQEFDNSELIKDLEEQIKFLKEELKNNPFLK
modifications: p-azido phenylalanine (APA) at position 44, derivatized with Cy3B
- Kd [1]: 200 ± 10 nM
- Kd [2]: 1700 ± 150 nM
